Measured values reported in article PMC10784468 (Nature Communications, 2024).
“And” between values parts separate entries of the source, which are not always exact repeats. Equal values may be shown once. Read-outs that look alike come from different tables or passages of the source. Positions of bridges follow the written chain, without caps; N, C: chain ends. Residues, ends and D or L forms follow the SMILES beside them. *: point of attachment. X1 = O=C(O)c1ccc(-c2c3nc(c(-c4ccc(C(=O)O)cc4)c4ccc([nH]4)c(-c4ccc(C(=O)*)cc4)c4nc(c(-c5ccc(C(=O)O)cc5)c5ccc2[nH]5)C=C4)C=C3)cc1; X2 = O=C(O)C/C(=C/C(=O)*)C(=O)O

Key:
[1] = system: MCF-7/MDR xenograft tumors; test: In vivo antitumor evaluation in MCF-7/MDR xenografted model
Source text: Female BALB/c nude mice (~8 weeks, 18 g) were subcutaneously inoculated with 5 × 10^6 MCF-7/MDR cells resuspended in Matrigel. […] Individual tumor volume and bodyweight of mouse after different treatment was collected at 2-days intervals for analysis. Mice were killed at 20 days post treatment unless endpoints were exceeded. Moreover, tumors from all groups were harvested under euthanasia and weighed for analysis at the end of treatment.

[2] = for Plasma Drug concentration: fluorescence; for Tumor Drug concentration: tumor lysate fluorescence
Protocol: Moreover, ex vivo fluorescence imaging of tumor and major organs was performed to investigate the dose-dependent tumor accumulation of Gi-F-CAA (Fig. 3e and Supplementary Fig. 25). […] Subsequently, time-dependent in vivo fluorescence imaging of EJ xenograft mice was conducted to investigate the in vivo biodistribution and metabolism of Gi-F-CAA after administrated with Gi-F-CAA (8 mg/kg in 100 μL PBS). […] Representative time-dependent fluorescence images of tumor tissue lysates and plasma were acquired after intravenous administration with Gi-F-CAA (8 mg/kg in 100 μL PBS) (Fig. 3h).
Firstly, A density of 5 × 10^6 EJ cell resuspended in Matrigel were subcutaneously injected into the right hind of mice to construct EJ xenograft model. When the tumor volume reached about 200–400 mm^3, the mice were administrated with Cy labeled Gi-F (8 mg/kg in 100 μL PBS), Cy labeled Gi-F-SA (8 mg/kg in 100 μL PBS) and Cy labeled Gi-F-CAA (8 mg/kg in 100 μL PBS) by intravenous injection for in vivo fluorescence imaging at different timepoints (10 min, 20 min, 40 min, 1 h, 2 h, 4 h, 8 h, 12 h and 24 h) with in vivo imaging system (IVIS). Meanwhile, the EJ xenograft mice were sacrificed for collecting major organs and tumors to evaluate the biodistribution of Gi-F-CAA.

PTGS2 = test: Tumor PTGS2 content detection; type: in vivo, BALB/c nude mice; conditions: EJ tumor tissues, 8 mg/kg i.v., versus PBS, Gi-F and Gi-F-SA
Protocol: EJ tumor tissues were collected under euthanasia at the end of treatment and washed with PBS for 3 times. Afterwards, the immunofluorescence analyses of Prostaglandin-Endoperoxide Synthase 2 (PTGS2) expression were performed with Wuhan Servicebio Technology Co., Ltd.

EJ tumor tissues = test: Tumor iron content detection (Prussian blue); type: in vivo, BALB/c nude mice; conditions: 8 mg/kg i.v.
Protocol: EJ tumor tissues were collected under euthanasia at the end of treatment and washed with PBS for 3 times. Afterwards, the DAB-enhanced Prussian blue iron staining was performed with Wuhan Servicebio Technology Co., Ltd.

786-O xenograft tumors = test: In vivo antitumor evaluation in large tumor model (786-O); parameters: species or system BALB/c nude mice; conditions: six i.v. injections at 2-days intervals, Gi-F-CAA 8 mg/kg, Bevacizumab 5 mg/kg
[3] = EJ xenograft mice, i.v. 8 mg/kg, 0.017 h, mice 1
[4] = EJ xenograft mice, i.v. 8 mg/kg, 0.017 h, mice 2
[5] = EJ xenograft mice, i.v. 8 mg/kg, 0.017 h, mice 3
[6] = EJ xenograft mice, i.v. 8 mg/kg, 0.083 h, mice 1
[7] = EJ xenograft mice, i.v. 8 mg/kg, 0.083 h, mice 2
[8] = EJ xenograft mice, i.v. 8 mg/kg, 0.083 h, mice 3
[9] = EJ xenograft mice, i.v. 8 mg/kg, 0.167 h, mice 1
[10] = EJ xenograft mice, i.v. 8 mg/kg, 0.167 h, mice 2
[11] = EJ xenograft mice, i.v. 8 mg/kg, 0.167 h, mice 3
[12] = EJ xenograft mice, i.v. 8 mg/kg, 0.25 h, mice 1
[13] = EJ xenograft mice, i.v. 8 mg/kg, 0.25 h, mice 2
[14] = EJ xenograft mice, i.v. 8 mg/kg, 0.25 h, mice 3
[15] = EJ xenograft mice, i.v. 8 mg/kg, 0.5 h, mice 1
[16] = EJ xenograft mice, i.v. 8 mg/kg, 0.5 h, mice 2
[17] = EJ xenograft mice, i.v. 8 mg/kg, 0.5 h, mice 3
[18] = EJ xenograft mice, i.v. 8 mg/kg, 0.75 h, mice 1
[19] = EJ xenograft mice, i.v. 8 mg/kg, 0.75 h, mice 2
[20] = EJ xenograft mice, i.v. 8 mg/kg, 0.75 h, mice 3
[21] = EJ xenograft mice, i.v. 8 mg/kg, 1 h, mice 1
[22] = EJ xenograft mice, i.v. 8 mg/kg, 1 h, mice 2
[23] = EJ xenograft mice, i.v. 8 mg/kg, 1 h, mice 3
[24] = EJ xenograft mice, i.v. 8 mg/kg, 2 h, mice 1
[25] = EJ xenograft mice, i.v. 8 mg/kg, 2 h, mice 2
[26] = EJ xenograft mice, i.v. 8 mg/kg, 2 h, mice 3
[27] = EJ xenograft mice, i.v. 8 mg/kg, 4 h, mice 1
[28] = EJ xenograft mice, i.v. 8 mg/kg, 4 h, mice 2
[29] = EJ xenograft mice, i.v. 8 mg/kg, 4 h, mice 3
[30] = EJ xenograft mice, i.v. 8 mg/kg, 8 h, mice 1
[31] = EJ xenograft mice, i.v. 8 mg/kg, 8 h, mice 2
[32] = EJ xenograft mice, i.v. 8 mg/kg, 8 h, mice 3
[33] = EJ xenograft mice, i.v. 8 mg/kg, 12 h, mice 1
[34] = EJ xenograft mice, i.v. 8 mg/kg, 12 h, mice 2
[35] = EJ xenograft mice, i.v. 8 mg/kg, 12 h, mice 3
[36] = EJ xenograft mice, i.v. 8 mg/kg, 24 h, mice 1
[37] = EJ xenograft mice, i.v. 8 mg/kg, 24 h, mice 2
[38] = EJ xenograft mice, i.v. 8 mg/kg, 24 h, mice 3

CC(C)C[C@H](NC(=O)c1ccc(-c2c3nc(c(-c4ccc(C(=O)O)cc4)c4ccc([nH]4)c(-c4ccc(C(=O)O)cc4)c4nc(c(-c5ccc(C(=O)O)cc5)c5ccc2[nH]5)C=C4)C=C3)cc1)C(=O)N[C@@H](CCCCNC(=O)/C=C(/CC(=O)O)C(=O)O)C(=O)N[C@@H](CC(C)C)C(=O)N[C@@H](CCCCN)C(=O)N[C@@H](CC(C)C)C(=O)N[C@@H](CCCCNC(=O)/C=C(/CC(=O)O)C(=O)O)C(=O)NCC(=O)N[C@@H](C)C(=O)N[C@H]1CSSC[C@@H](C(=O)N2CCC[C@H]2C(=O)N[C@H](C(=O)O)C(C)C)NC(=O)[C@@H]2CCCN2C(=O)[C@H](Cc2ccc(O)cc2)NC(=O)[C@H](CC(C)C)NC(=O)[C@@H]2CCCN2C(=O)[C@H](CC(C)C)NC(=O)[C@H](Cc2c[nH]c3ccccc23)NC(=O)[C@H](CC(N)=O)NC1=O [Gi-F-CAA] (X1-LK(X2)LKLK(X2)GACNWLPLYPCPV-OH; disulfide 9-17; C-terminus assumed)
mean tumor volume at 20 days post injection ([1]; MCF-7/MDR xenograft, six i.v. injections every 2 days, Gi-F-CAA 8 mg/kg, DOX and CPT 3 mg/kg, n = 6): 623 mm^3 | TGI rate ([1]; MCF-7/MDR xenograft, six i.v. injections, Gi-F-CAA 8 mg/kg, DOX and CPT 3 mg/kg, 20 days): 66% | Tumor weight ([1]; mice 1): 0.59 g | Tumor weight ([1]; mice 2): 0.52 g | Tumor weight ([1]; mice 3): 0.51 g | Tumor weight ([1]; mice 4): 0.35 g | Tumor weight ([1]; mice 5): 0.37 g | Tumor weight ([1]; mice 6): 0.54 g | blood circulation half-life (t1/2) ([2]; EJ xenograft mice, i.v. 8 mg/kg in 100 μL PBS, plasma fluorescence, n = 3 mice): 1.03 ± 0.192 h | Plasma Drug concentration [2, 3]: 33.86 µM | Plasma Drug concentration [2, 4]: 27.32 µM | Plasma Drug concentration [2, 5]: 28.25 µM | Plasma Drug concentration [2, 6]: 31.76 µM | Plasma Drug concentration [2, 7]: 25.29 µM | Plasma Drug concentration [2, 8]: 26.44 µM | Plasma Drug concentration [2, 9]: 24.34 µM | Plasma Drug concentration [2, 10]: 19.45 µM | Plasma Drug concentration [2, 11]: 20.15 µM | Plasma Drug concentration [2, 12]: 19.65 µM | Plasma Drug concentration [2, 13]: 15.52 µM | Plasma Drug concentration [2, 14]: 16.27 µM | Plasma Drug concentration [2, 15]: 15.69 µM | Plasma Drug concentration [2, 16]: 12.64 µM | Plasma Drug concentration [2, 17]: 13.24 µM | Plasma Drug concentration [2, 18]: 14.64 µM | Plasma Drug concentration [2, 19]: 11.89 µM | Plasma Drug concentration [2, 20]: 12.38 µM | Plasma Drug concentration [2, 21]: 13.02 µM | Plasma Drug concentration [2, 22]: 10.61 µM | Plasma Drug concentration [2, 23]: 11.06 µM | Plasma Drug concentration [2, 24]: 7.79 µM | Plasma Drug concentration [2, 25]: 8.53 µM | Plasma Drug concentration [2, 26]: 9.07 µM | Plasma Drug concentration [2, 27]: 6.64 µM | Plasma Drug concentration [2, 28]: 6.59 µM | Plasma Drug concentration [2, 29]: 6.96 µM | Plasma Drug concentration [2, 30]: 3.65 µM | Plasma Drug concentration [2, 31]: 4.12 µM | Plasma Drug concentration [2, 32]: 4.41 µM | Plasma Drug concentration [2, 33]: 2.66 µM | Plasma Drug concentration [2, 34]: 3.28 µM | Plasma Drug concentration [2, 35]: 3.5 µM | Plasma Drug concentration [2, 36]: 1.38 µM | Plasma Drug concentration [2, 37]: 1.99 µM | Plasma Drug concentration [2, 38]: 2.17 µM | Tumor Drug concentration [2, 3]: 11.93 µM | Tumor Drug concentration [2, 4]: 13.59 µM | Tumor Drug concentration [2, 5]: 9.61 µM | Tumor Drug concentration [2, 6]: 13.61 µM | Tumor Drug concentration [2, 7]: 15.1 µM | Tumor Drug concentration [2, 8]: 10.98 µM | Tumor Drug concentration [2, 9]: 14.15 µM | Tumor Drug concentration [2, 10]: 15.1 µM | Tumor Drug concentration [2, 11]: 11.74 µM | Tumor Drug concentration [2, 12]: 15.43 µM | Tumor Drug concentration [2, 13]: 16.04 µM | Tumor Drug concentration [2, 14]: 12.46 µM | Tumor Drug concentration [2, 15]: 17.54 µM | Tumor Drug concentration [2, 16]: 16.74 µM | Tumor Drug concentration [2, 17]: 14.43 µM | Tumor Drug concentration [2, 18]: 16.03 µM | Tumor Drug concentration [2, 19]: 16.19 µM | Tumor Drug concentration [2, 20]: 13.02 µM | Tumor Drug concentration [2, 21]: 14.49 µM | Tumor Drug concentration [2, 22]: 15.3 µM | Tumor Drug concentration [2, 23]: 11.94 µM | Tumor Drug concentration [2, 24]: 12.9 µM | Tumor Drug concentration [2, 25]: 13.97 µM | Tumor Drug concentration [2, 26]: 10.6 µM | Tumor Drug concentration [2, 27]: 10.23 µM | Tumor Drug concentration [2, 28]: 11.8 µM | Tumor Drug concentration [2, 29]: 8.38 µM | Tumor Drug concentration [2, 30]: 7.25 µM | Tumor Drug concentration [2, 31]: 8.28 µM | Tumor Drug concentration [2, 32]: 6.04 µM | Tumor Drug concentration [2, 33]: 5.72 µM | Tumor Drug concentration [2, 34]: 6.55 µM | Tumor Drug concentration [2, 35]: 4.61 µM | Tumor Drug concentration [2, 36]: 4.93 µM | Tumor Drug concentration [2, 37]: 5.65 µM | Tumor Drug concentration [2, 38]: 3.95 µM | tumor tissue lysate signal relative to plasma ([2]; i.v. 8 mg/kg, from 1 h to 24 h): about 3 fold | level at time molar ([2]; mouse, in vivo, iv, 8 mg/kg): 16.2 µM | PTGS2 levels of tumor tissues (PTGS2): elevation | DLS size distribution, Number (%): 0.000191% and 14% and 7.4% | iron levels of tumor tissues versus other groups (EJ tumor tissues): substantially higher | tumor volume course in large tumors (~500 mm^3) (786-O xenograft tumors): declining tendency for 10 days and maintained a long-termed tumor growth inhibition
